Experimental data: patent publication US20050079156A1, “Method of treating endometreosis” (priority 2001, published 2005)

Assays:
Type in all cases: cell-based
[1] = tested on: human adipocytes; test: Estradiol production in cultured human adipocytes (estradiol in conditioned media); details: for estradiol production (effect of cytokine alone): human adipocytes, different doses of IL-1α and IL-1β; for estradiol production stimulated by a mixture of 6 cytokines: mix of IL-1b, TNF-α, IL-6, IL-8, IL-11, oncostatin M 0.01 ug/ml each, IFN-α 1 ug/ml, IFN-b 2 ug/ml, FIG. 4
Protocol: Human subcutaneous cultured adipocytes, catalog nos. SP-1012, SP-1024, SP-1096, SP-75, or SP-25 were purchased from Zen-Bio, Inc. (Research Triangle Park, N.C.) and cultured according to the manufacturer's instructions.
Human adipocytes (approximately 100,000 cells/well) were cultured for 24 hr in the presence or absence of different doses of IL-1α and IL-1β (as indicated) with and without IFN-γ (0.1 ug/ml, IL-1α, IL-1β and IFN-γ were purchased from R&D). The amount of estradiol release in the conditioned media was determined by radioimmunoassay for estradiol using the Active™ Estradiol EIA kit according to the manufacturer's instructions (catalog no. DSL-10-4300, Diagnostic Systems Laboratories, Inc., Webster, Tex.). Each value represents the mean±S.E.M. of triplicate wells.
Human adipocytes (100,000 cells/well) were cultured for 72 hr with and without increasing doses of IFN-γ (0.0001 to 1 ug/ml, purchased from R&D). The amount of estradiol in the conditioned media was determined by radioimmunoassay as described in Example 1. Each value represents the mean±S.E.M. of triplicate wells.
Human adipocytes (100,000 cells/well) were cultured for 72 hr in the presence or absence of different doses of the mix Cytokines (IL-1b, TNF-α, IL-6, IL-8, IL-11 and oncostatin M, 0.01 ug/ml/each—dilution as indicated) with and without IFN-γ (0.1 ug/ml), […] (1 ug/ml) or IFN-b (2 ug/ml). IFN-α was purchased from PBL while IFN-b was obtained from Serono. The amount of estradiol release in the conditioned media was determined by radioimmunoassay as described in Example 1. Each value represents the mean±S.E.M. of triplicate wells.
(§1) Human adipocytes (100,000 cells/well) obtained from Zen-Bio,Inc were cultured for 48 hr in the presence or absence of different doses of the cytokine mix (dilution as indicated) with and without IFN-γ (0.1 ug/ml). The amount of estradiol release in the conditioned media was determined by radioimmunoassay as described in Example 1. Each value represents the mean±S.E.M. of triplicate wells.
as §1, with “Zen-Bio, Inc” for “Zen-Bio,Inc”, “72” for “48”, “LPS (as” for “the cytokine mix (dilution as”, “ug/ml, LPS were purchased from Sigma).” for “ug/ml).”
as §1, with “Zen-Bio, Inc” for “Zen-Bio,Inc”, “the” for “the cytokine”, “mix LPS, PMA and PGE2” for “mix”, “ug/ml). IFN-γ was added at the same as the mix, 8 hr or 24 hr after the mix of the LPS, PMA and PGE2 which were purchased from Sigma.” for “ug/ml).”

[2] = tested on: aromatase mRNA; test: Aromatase mRNA expression in human adipocytes by RT-PCR; details: for aromatase mRNA expression (induction by cytokine alone): cytokine 0.1 ug/ml
Protocol: Adipocyte cultures were treated with IL-1-β, IFN-γ, TNF-α, and combinations of IL-1-β, and IFN-γ and TNF-α and IFN-γ. Subsequently, total RNA from cultured adipocytes was isolated using conventional methods. The reverse transcriptase polymerase chain reaction (RT-PCR) was performed using aromatase specific primers. The amplified aromatase cDNA fragments produced by RT-PCR were separated on an agarose gel. As shown in the FIG. 3, IL-1 and TNF alone induce transcription of aromatase mRNA compared to untreated control. However, the administration of IFN-γ inhibits the transcription of aromatase mRNA when given together IL-1 or TNF.
Human adipocytes (from one flask with 100% confluence) obtained from Zen-Bio,Inc were cultured for 72 hr in the presence or absence of 0.1 ug/ml of different Cytokines as indicated with and without IFN-γ (0.1 ug/ml, all Cytokines were purchased from R&D except FAS ligand, TRAIL and OX40 Ligands were obtained from Alexis). Total RNA was extracted for RT-PCR (30 cycles with 50 ng RNA/each sample) using human aromatase and GAPDH specific oligos (20 mers).

[3] = tested on: human preadipocytes; test: Cytokine stimulation of estradiol production in human preadipocytes; details: 72 hr, FIG. 9
Protocol: […] The amount of estradiol release in the conditioned media was determined by radioimmunoassay for estradiol using the Active™ Estradiol EIA kit according to the manufacturer's instructions (catalog no. DSL-10-4300, Diagnostic Systems Laboratories, Inc., Webster, Tex.). Each value represents the mean±S.E.M. of triplicate wells. Similar results were reproducible in 10 additional experiments using cells derived from either male or female patients.

Molecule: IL-1β: interleukin-1 beta, cytokine purchased from R&D
- estradiol production (effect of cytokine alone) ([1]; 24 hr, FIG. 1): significantly increased estradiol production
- transcription of aromatase mRNA (cytokine alone compared to untreated control) ([2]; adipocyte cultures, FIG. 3): induce
- aromatase mRNA expression (induction by cytokine alone) ([2]; 72 hr, FIG. 8): induce

Molecule: LIF: leukemia inhibitory factor, cytokine
- aromatase mRNA expression (induction by cytokine alone) ([2]; 72 hr, FIG. 8): induce

Molecule: GH: human growth hormone
- estradiol production (stimulation by cytokine) ([3]; cytokine 5 ug/ml): stimulate

Molecule: IL-6: interleukin-6, cytokine
- aromatase mRNA expression (induction by cytokine alone) ([2]; 72 hr, FIG. 8): induce
- estradiol production (stimulation by cytokine) ([3]; cytokine 0.5 ug/ml): stimulate

Molecule: IGF-1: insulin growth factor-1
- estradiol production (stimulation by cytokine) ([3]; cytokine 5 ug/ml): stimulate

Molecule: IL-8: interleukin-8, cytokine
- estradiol production (stimulation by cytokine) ([3]; cytokine 0.5 ug/ml): stimulate

Molecule: IFN-α
- estradiol production stimulated by a mixture of 6 cytokines ([1]; 72 hr, IFN-γ 0.1 ug/ml): do not inhibit

Molecule: TRAIL: tumor necrosis factor-related apoptosis-inducing ligand, obtained from Alexis
- aromatase mRNA expression (induction by cytokine alone) ([2]; 72 hr, FIG. 8): induce

B1: IFN-γ: interferon-gamma, recombinant human, purchased from R&D (protein, UniProt P01579 24-161, looked up)
Interferon gamma: QDPYVKEAENLKKYFNAGHSDVADNGTLFLGILKNWKEESDRKIMQSQIVSFYFKLFKNFKDDQSIQKSVETIKEDMNVKFFNSNKKKRDDFEKLTNYSVTDLNVQRKAIHELIQVMAELSPAAKTGKRKRSQMLFRG
- estradiol production stimulated by a mixture of 15 cytokines ([1]; 15 cytokines 0.01 ug/ml each, 48 hr, IFN-γ 0.1 ug/ml, FIG. 5): inhibited
- LPS stimulated estradiol production ([1]; 72 hr, IFN-γ 0.1 ug/ml, FIG. 6): inhibits
- IL-1α and IL-1β induced estradiol production ([1]; IFN-γ 0.1 ug/ml, 24 hr, FIG. 1): inhibits
- constitutive estradiol production ([1]; IFN-γ 0.0001 to 1 ug/ml, 72 hr, FIG. 2): dose-dependent inhibitory effect
- PMA, LPS and PGE2 stimulated estradiol production ([1]; mix PMA 5 ng/ml, LPS 10 ug/ml, PGE2 10 ug/ml, 48 hr, IFN-γ 0.1 ug/ml added at same time, 8 hr or 24 hr after the mix, FIG. 7): inhibits
- estradiol production stimulated by a mixture of 6 cytokines ([1]; 72 hr, IFN-γ 0.1 ug/ml): inhibits
- constitutive aromatase mRNA ([2]; adipocyte cultures, Example 3): Inhibited
- transcription of aromatase mRNA when given together IL-1 or TNF ([2]; adipocyte cultures, FIG. 3): inhibits
- induced expression of aromatase mRNA by TRAIL, OX40, IL-1β, IL-6, IL-11 and LIF ([2]; cytokines 0.1 ug/ml, IFN-γ 0.1 ug/ml, 72 hr, FIG. 8): inhibits

B2: IL-11: interleukin-11, cytokine (protein, UniProt P20809 22-199, looked up)
Interleukin-11: PGPPPGPPRVSPDPRAELDSTVLLTRSLLADTRQLAAQLRDKFPADGDHNLDSLPTLAMSAGALGALQLPGVLTRLRADLLSYLRHVQWLRRAGGSSLKTLEPELGTLQARLDRLLRRLQLLMSRLALPQPPPDPPAPPLAPPSSAWGGIRAAHAILGGLHLTLDWAVRGLLLLKTRL
- aromatase mRNA expression (induction by cytokine alone) ([2]; 72 hr, FIG. 8): induce
- estradiol production (stimulation by cytokine) ([3]; cytokine 0.5 ug/ml): stimulate

B3: OSM: oncostatin M, cytokine (protein, UniProt P13725 26-221, looked up)
Oncostatin-M: AAIGSCSKEYRVLLGQLQKQTDLMQDTSRLLDPYIRIQGLDVPKLREHCRERPGAFPSEETLRGLGRRGFLQTLNATLGCVLHRLADLEQRLPKAQDLERSGLNIEDLEKLQMARPNILGLRNNIYCMAQLLDNSDTAEPTKAGRGASQPPTPTPASDAFQRKLEGCRFLHGYHRFMHSVGRVFSKWGESPNRSRR
- estradiol production (stimulation by cytokine) ([3]; cytokine 0.5 ug/ml): stimulate

B4: OX40L: OX40 Ligand, obtained from Alexis (protein, UniProt P23510 1-183, looked up)
Tumor necrosis factor ligand …: MERVQPLEENVGNAARPRFERNKLLLVASVIQGLGLLLCFTYICLHFSALQVSHRYPRIQSIKVQFTEYKKEKGFILTSQKEDEIMKVQNNSVIINCDGFYLISLKGYFSQEVNISLHYQKDEEPLFQLKKVRSVNSLMVASLTYKDKVYLNVTTDNTSLDDFHVNGGELILIHQNPGEFCVL
- aromatase mRNA expression (induction by cytokine alone) ([2]; 72 hr, FIG. 8): induce

B5: IL-1α: interleukin-1-alpha, cytokine purchased from R&D (protein, UniProt P01583 113-271, looked up)
Interleukin-1 alpha: SAPFSFLSNVKYNFMRIIKYEFILNDALNQSIIRANDQYLTAAALHNLDEAVKFDMGAYKSSKDDAKITVILRISKTQLYVTAQDEDQPVLLKEMPEIPKTITGSETNLLFFWETHGTKNYFTSVAHPNLFIATKQDYWVCLAGGPPSITDFQILENQA
- estradiol production (effect of cytokine alone) ([1]; 24 hr, FIG. 1): significantly increased estradiol production
